According to paper PMC6987127 (Nature Communications, 2020):

Columns and labels:
[1] = biological target: T1, TrkH-TrkA complex (TrkHA) (Vibrio parahaemolyticus, UniProt Q87KD2); assay: single-channel patch clamp, inside-out patches of E. coli giant spheroplasts; type: biochemical; conditions: 150 mM KCl, 10 mM HEPES pH 7.4, same wild-type value also cited to earlier work
T1 construct: gene VP3045; full-length TrkH with C-terminal TEV site and His10; full-length TrkA with N-terminal GST cut by TEV; each made in E. coli BL21(DE3) and mixed; for patch clamp both co-expressed from modified pET vectors in E. coli giant spheroplasts; TrkH dimer with TrkA tetramer; with Trk system potassium uptake protein TrkH
T1 sequence (Q87KD2 1-458): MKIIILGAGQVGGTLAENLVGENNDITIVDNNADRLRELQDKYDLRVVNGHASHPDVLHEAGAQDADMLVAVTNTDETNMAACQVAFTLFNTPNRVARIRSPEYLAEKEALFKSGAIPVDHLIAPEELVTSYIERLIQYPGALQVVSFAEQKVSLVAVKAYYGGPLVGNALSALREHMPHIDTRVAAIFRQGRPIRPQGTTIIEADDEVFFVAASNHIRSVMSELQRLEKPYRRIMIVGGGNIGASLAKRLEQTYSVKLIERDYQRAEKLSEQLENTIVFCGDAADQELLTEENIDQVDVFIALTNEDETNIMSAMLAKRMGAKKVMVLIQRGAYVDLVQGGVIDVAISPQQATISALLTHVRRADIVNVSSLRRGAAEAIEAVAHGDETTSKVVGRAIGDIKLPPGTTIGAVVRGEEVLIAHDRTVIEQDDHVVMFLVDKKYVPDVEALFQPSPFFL
T1 sequence (Q87TN7 1-485 partner): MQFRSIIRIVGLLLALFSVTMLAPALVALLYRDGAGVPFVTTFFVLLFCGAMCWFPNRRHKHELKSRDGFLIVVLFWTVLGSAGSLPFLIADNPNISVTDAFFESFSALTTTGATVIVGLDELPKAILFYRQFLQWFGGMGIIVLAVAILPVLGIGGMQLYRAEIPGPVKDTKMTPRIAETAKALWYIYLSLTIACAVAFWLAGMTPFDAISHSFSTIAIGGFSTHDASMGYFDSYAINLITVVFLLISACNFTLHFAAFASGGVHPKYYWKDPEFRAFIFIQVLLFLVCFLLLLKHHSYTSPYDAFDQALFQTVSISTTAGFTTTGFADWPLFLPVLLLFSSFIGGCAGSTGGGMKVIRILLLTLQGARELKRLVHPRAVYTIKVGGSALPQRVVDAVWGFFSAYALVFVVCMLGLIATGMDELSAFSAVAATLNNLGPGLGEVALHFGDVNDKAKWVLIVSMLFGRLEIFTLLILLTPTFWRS

[2] = biological target: T1, TrkH-TrkA complex (TrkHA); assay: X-ray crystallography, […] A; type: binding; conditions: 10 mM ADP; pH 7.2; 20 °C; site: N2 domain of TrkA only
[3] = biological target: T1, TrkH-TrkA complex (TrkHA); assay: X-ray crystallography, […] A; type: binding; conditions: 10 mM ATPγS; MgCl2 50 mM; pH 7.3; 20 °C; sites: N1 and N2 domains of TrkA
[4] = biological target: TrkH from Vibrio parahaemolyticus, wild type (Vibrio parahaemolyticus) (UniProt Q87TN7)
[5] = biological target: TrkA from Vibrio parahaemolyticus, wild type (Vibrio parahaemolyticus); assay: crystal structure; TrkH-TrkA complex crystallised in the presence of 10 mM ATPγS (TrkHA-ATPγS), 3.85 Å; 20 °C, MgCl2 50 mM, NH4H2PO4 50 mM, HEPES pH 7.3, PEG400 20%
[6] = biological target: TrkA from Vibrio parahaemolyticus, wild type (Vibrio parahaemolyticus); assay: crystal structure; TrkH-TrkA complex crystallised in the presence of 10 mM ADP (TrkHA-ADP), 3.53 Å; 20 °C, magnesium acetate 100 mM, HEPES pH 7.2, PEG400 26%, 2-propanol 10%
[7] = biological target: TrkA from Vibrio parahaemolyticus, wild type (Vibrio parahaemolyticus); assay: cryo-EM structure; TrkH-TrkA complex frozen on grids in the presence of 10 mM ATP (TrkHA-ATP), overall 3.0 Å; 150 mM KCl, 20 mM HEPES pH 7.5, 5 mM β-mercaptoethanol, 3.5 mM DM
[8] = biological target: the molecule itself; assay: crystal structure; TrkH-TrkA complex crystallised in the presence of 10 mM ADP (TrkHA-ADP), 3.53 Å; 20 °C, magnesium acetate 100 mM, HEPES pH 7.2, PEG400 26%, 2-propanol 10%

**Q.** What does the source list for `Nc1ncnc2c1ncn2[C@@H]1O[C@H](COP(=O)(O)OP(=O)(O)O)[C@@H](O)[C@H]1O` [ADP]?
**A.** Popen at 5 mM ([1]; 5 mM ADP, closes channel): 0.02 ± 0.002; X-ray crystallography, 3.53 A [2]: each TrkA has a prominent non-protein density in the N2 domain in which we modeled

**Q.** `Nc1ncnc2c1ncn2[C@@H]1O[C@H](COP(=O)(O)OP(=O)(O)OP(=O)(O)O)[C@@H](O)[C@H]1O` [ATP] was tested. Which “Popen at 5 mM” value ([1]; 5 mM ATP, activator) did it give?
**A.** 0.87 ± 0.003

**Q.** For `Nc1ncnc2c1ncn2[C@@H]1O[C@H](COP(=O)(O)OP(=O)(O)OP(O)(O)=S)[C@@H](O)[C@H]1O` [ATPγS], which “X-ray crystallography, 3.85 A” value [3] is on record?
**A.** ATPγS is found in both the N1 and N2 domains

**Q.** With “TrkA from Vibrio parahaemolyticus, wild type (natural protein)” as the molecule, how does the single-channel open probability (Popen) of TrkHA wt, inside-out patches of E. coli spheroplasts, in ADP [4] read?
**A.** 0.02

**Q.** What about the single-channel open probability (Popen) of TrkHA wt, inside-out patches of E. coli spheroplasts, in ATP [4] of the same molecule?
**A.** 0.87

**Q.** What about the single-channel open probability (Popen) of TrkHA wt, inside-out patches of E. coli spheroplasts, no ligand [4] of the same molecule?
**A.** 0.17

**Q.** And the stoichiometry N [5]?
**A.** 4

**Q.** What about the stoichiometry N [6] of the same molecule?
**A.** 4

**Q.** And the stoichiometry N [7]?
**A.** 2

B1: TrkH from Vibrio parahaemolyticus, wild type (natural protein, UniProt Q87TN7 1-485, looked up)
chain: T1 sequence (Q87TN7 1-485 partner)
notes: TrkH, Vibrio parahaemolyticus, full-length gene in a modified pET vector; TEV protease site followed by a 10-polyhistidine tag at the C terminus; printed residue numbers run to 485; Homodimer in all three structures; also called TrkH (wt)
**Q.** Which “stoichiometry N” value [8] does the source give for B1 here?
**A.** 2
